Results as given in paper PMC7376575 (The Biochemical journal, 2020).

T1: catalytic domain of MMP-1 (UniProt P03956 106-261)
T1 sequence: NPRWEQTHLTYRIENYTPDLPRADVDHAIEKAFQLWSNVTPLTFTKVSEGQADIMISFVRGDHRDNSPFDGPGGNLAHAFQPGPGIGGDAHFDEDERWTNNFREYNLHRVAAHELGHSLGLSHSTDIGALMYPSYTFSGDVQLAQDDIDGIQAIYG

T2: biotinylated catalytic domain of MMP-1 (UniProt P03956 106-261, biotin on Lys residues)
T2 sequence: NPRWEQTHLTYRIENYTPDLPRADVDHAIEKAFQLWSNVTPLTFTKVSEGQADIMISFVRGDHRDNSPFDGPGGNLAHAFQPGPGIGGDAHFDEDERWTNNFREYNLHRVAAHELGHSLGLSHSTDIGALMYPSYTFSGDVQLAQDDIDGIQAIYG

B1: N-TIMP2 V71R (domain or fragment)
chain: CSCSPVHPQQAFCNADVVIRAKAVSEKEVDSGNDIYGNPIKRIQYEIKQIKMFKGPEKDIEFIYTAPSSARCGVSLDVGGKKEYLIAGKAEGDGKMHITLCDFIVPWDTLSTTQKKSLNHRYQMGCE
modifications: native disulfides
B2: N-terminal domain of the tissue inhibitor of metalloproteinase 2, wild type (domain or fragment)
chain: CSCSPVHPQQAFCNADVVIRAKAVSEKEVDSGNDIYGNPIKRIQYEIKQIKMFKGPEKDIEFIYTAPSSAVCGVSLDVGGKKEYLIAGKAEGDGKMHITLCDFIVPWDTLSTTQKKSLNHRYQMGCE
B3: yeast-displayed N-TIMP2WT (domain or fragment)
chain: CSCSPVHPQQAFCNADVVIRAKAVSEKEVDSGNDIYGNPIKRIQYEIKQIKMFKGPEKDIEFIYTAPSSAVCGVSLDVGGKKEYLIAGKAEGDGKMHITLCDFIVPWDTLSTTQKKSLNHRYQMGCE
B4: N-TIMP2 S68E (domain or fragment)
chain: CSCSPVHPQQAFCNADVVIRAKAVSEKEVDSGNDIYGNPIKRIQYEIKQIKMFKGPEKDIEFIYTAPESAVCGVSLDVGGKKEYLIAGKAEGDGKMHITLCDFIVPWDTLSTTQKKSLNHRYQMGCE
modifications: native disulfides
B5: N-TIMP2 V71W (domain or fragment)
chain: CSCSPVHPQQAFCNADVVIRAKAVSEKEVDSGNDIYGNPIKRIQYEIKQIKMFKGPEKDIEFIYTAPSSAWCGVSLDVGGKKEYLIAGKAEGDGKMHITLCDFIVPWDTLSTTQKKSLNHRYQMGCE
modifications: native disulfides
B6: N-TIMP2 T99Q (domain or fragment)
chain: CSCSPVHPQQAFCNADVVIRAKAVSEKEVDSGNDIYGNPIKRIQYEIKQIKMFKGPEKDIEFIYTAPSSAVCGVSLDVGGKKEYLIAGKAEGDGKMHIQLCDFIVPWDTLSTTQKKSLNHRYQMGCE
modifications: native disulfides
B7: N-TIMP2 T99G (domain or fragment)
chain: CSCSPVHPQQAFCNADVVIRAKAVSEKEVDSGNDIYGNPIKRIQYEIKQIKMFKGPEKDIEFIYTAPSSAVCGVSLDVGGKKEYLIAGKAEGDGKMHIGLCDFIVPWDTLSTTQKKSLNHRYQMGCE
modifications: native disulfides
B8: N-TIMP2 T99M (domain or fragment)
chain: CSCSPVHPQQAFCNADVVIRAKAVSEKEVDSGNDIYGNPIKRIQYEIKQIKMFKGPEKDIEFIYTAPSSAVCGVSLDVGGKKEYLIAGKAEGDGKMHIMLCDFIVPWDTLSTTQKKSLNHRYQMGCE
modifications: native disulfides
B9: N-TIMP2 S68M (domain or fragment)
chain: CSCSPVHPQQAFCNADVVIRAKAVSEKEVDSGNDIYGNPIKRIQYEIKQIKMFKGPEKDIEFIYTAPMSAVCGVSLDVGGKKEYLIAGKAEGDGKMHITLCDFIVPWDTLSTTQKKSLNHRYQMGCE
modifications: native disulfides
B10: N-TIMP2 H97R (domain or fragment)
chain: CSCSPVHPQQAFCNADVVIRAKAVSEKEVDSGNDIYGNPIKRIQYEIKQIKMFKGPEKDIEFIYTAPSSAVCGVSLDVGGKKEYLIAGKAEGDGKMRITLCDFIVPWDTLSTTQKKSLNHRYQMGCE
modifications: native disulfides

How the values were obtained:
[1] = target: T1, catalytic domain of MMP-1; assay: enzyme inhibition assay
[2] = target: catalytic domain of MMP-3 (UniProt P08254 100-272); assay: enzyme inhibition assay
[3] = target: T2, biotinylated catalytic domain of MMP-1; assay: flow cytometry on cells
[4] = target: biotinylated catalytic domain of MMP-3 (UniProt P08254 100-272, biotin on Lys residues); assay: flow cytometry on cells
[5] = target: biotinylated catalytic domain of MMP-14 (UniProt P50281 112-292, biotin on Lys residues (EZ-Link sulfo-NHS-LC-LC-biotin)); assay: flow cytometry on cells
[6] = target: catalytic domain of MMP-14 (UniProt P50281 112-292); assay: enzyme inhibition assay

catalytic domain of MMP-3, sequence (P08254 100-272): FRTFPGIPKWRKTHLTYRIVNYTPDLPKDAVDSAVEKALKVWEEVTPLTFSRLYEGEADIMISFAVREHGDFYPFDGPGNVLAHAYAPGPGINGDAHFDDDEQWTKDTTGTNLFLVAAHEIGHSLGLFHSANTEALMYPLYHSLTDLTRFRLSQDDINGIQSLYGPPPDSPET
biotinylated catalytic domain of MMP-3, sequence (P08254 100-272): as above

Binder	Ki [1]	Ki [2]	Kd [3]	Kd [4]	Kd [5]	Ki [6]
B1	5.59 nM	86.2 nM	–	–	–	–
B2	–	1.34 nM	–	–	–	–
B3	–	–	3.22 nM	36.2 nM	48.2 nM	–
B4	0.249 nM	4.71 nM	–	–	–	1.42 nM
B5	2.99 nM	26.4 nM	–	–	–	34.3 nM
B6	0.099 nM	3.72 nM	–	–	–	3.92 nM
B7	0.08 nM	4.24 nM	–	–	–	0.534 nM
B8	0.085 nM	8.29 nM	–	–	–	2.05 nM
B9	0.181 nM	3.29 nM	–	–	–	2.6 nM
B10	0.031 nM	1.31 nM	–	–	–	0.125 nM
